Reference: patent US20250179176A1, “ANTI-TIGIT ANTIBODIES AND USES OF THE SAME” (ARCUS BIOSCIENCES, INC., priority 2022, published 2025)

How the values were obtained:
[1] = Clinical safety of domvanalimab, 99 participants (AB154CSP0001 and ARC-7): TEAEs, related AEs, SAEs; assay type: in vivo, human; details: for Any TEAEs / TEAE Diarrhoea / TEAE Fatigue / TEAE Nausea / TEAE Pruritus: Table 15
[2] = tested on: Jurkat cell line stably overexpressing human TIGIT; assay: CDC assay with human complement; assay type: cell-based; details: increasing concentrations up to 33 nM
Procedure: Briefly, 50,000 Jurkat-TIGIT cells in RPMI 1640 medium (Invitrogen) containing 10% fetal bovine serum (FBS) were seeded into a 96-well round bottom plates (Nunc). Test antibodies were added starting at a top concentration of 50 μg/ml followed by a three-fold dilution series and allowed to incubate with cells for 1 hour at 37° C. in a 5% CO2 incubator. After this 1-hour incubation, human complement was added and allowed to incubate for an additional 3 hours at 37° C. in a 5% CO2 incubator. Following the completion of this 3-hour incubation, […] of propidium iodide (ThermoFisher) was added and samples were analyzed by flow cytometry (BD FACSCalibur) to determine the percentages of propidium iodide positivity as a readout for cell death.

B1: domvanalimab: anti-TIGIT antibody with engineered IgG1 Fc, reduced FcγR binding; heavy chain SEQ ID NO: 12, light chain SEQ ID NO: 13 (antibody)
heavy: EVQLVESGGGLVQPGGSLRLSCAASGFTFSNFGMHWVRQAPGKGLEWVAFISSGSSSIYYADTVKGRFTISRDNAKNSLYLQMNSLRAEDTAVYYCARMRLDYYAMDYWGQGTMVTVSSASTKGPSVFPLAPSSKSTSGGTAALGCLVKDYFPEPVTVSWNSGALTSGVHTFPAVLQSSGLYSLSSVVTVPSSSLGTQTYICNVNHKPSNTKVDKKVEPKSCDKTHTCPPCPAPEAAGGPSVFLFPPKPKDTLMISRTPEVTCWVDVSHEDPEVKFNWYVDGVEVHNAKTKPREEQYNSTYRWSVLTVLHQDWLNGKEYKCKVSNKALPAPIEKTISKAKGQPREPQVYTLPPSRDELTKNQVSLTCLVKGFYPSDIAVEWESNGQPENNYKTTPPVLDSDGSFFLYSKLTVDKSRWQQGNVFSCSVMHEALHNHYTQKSLSLSPGK
light: DIQMTQSPSSLSASVGDRVTITCRASKSISKYLAWYQQKPGKAPKLLIYSGSTLQSGVPSRFSGSGSGTDFTLTISSLQPEDFATYYCQQHNEYPWTFGGGTKVEIKRTVAAPSVFIFPPSDEQLKSGTASWCLLNNFYPREAKVQWKVDNALQSGNSQESVTEQDSKDSTYSLSSTLTLSKADYEKHKVYACEVTHQGLSSPVTKSFNRGEC
Any TEAEs ([1]; ARC-7 (n = 37)): 31 (83.8%) | TEAE Diarrhoea ([1]; ARC-7 (n = 37)): 5 (13.5%) | TEAE Fatigue ([1]; ARC-7 (n = 37)): 3 (8.1%) | TEAE Nausea ([1]; ARC-7 (n = 37)): 4 (10.8%) | TEAE Pruritus ([1]; ARC-7 (n = 37)): 4 (10.8%) | Any TEAEs ([1]; Total (n = 99)): 84 (84.8%) | TEAE Diarrhoea ([1]; Total (n = 99)): 10 (10.1%) | TEAE Fatigue ([1]; Total (n = 99)): 12 (12.1%) | TEAE Nausea ([1]; Total (n = 99)): 13 (13.1%) | TEAE Pruritus ([1]; Total (n = 99)): 10 (10.1%) | Any TEAEs ([1]; n = 62): 53 (85.5%) | TEAE Diarrhoea ([1]; n = 62): 5 (8.1%) | TEAE Fatigue ([1]; n = 62): 9 (14.5%) | TEAE Nausea ([1]; n = 62): 9 (14.5%) | TEAE Pruritus ([1]; n = 62): 6 (9.7%) | Domvanalimab-related AE: Abdominal distension ([1]; Total (N = 99)): 1 ( 1.0%) | Domvanalimab-related AE: Abdominal pain ([1]; Total (N = 99)): 1 ( 1.0%) | Domvanalimab-related AE: Adrenal insufficiency ([1]; Total (N = 99)): 1 ( 1.0%) | Domvanalimab-related AE: Anaemia ([1]; Total (N = 99)): 1 ( 1.0%) | Domvanalimab-related AE: Any AEs ([1]; Total (N = 99)): 50 (50.5%) | Domvanalimab-related AE: Arthralgia ([1]; Total (N = 99)): 4 (4.0%) | Domvanalimab-related AE: Arthritis ([1]; Total (N = 99)): 1 ( 1.0%) | Domvanalimab-related AE: Aspartate aminotransferase increased ([1]; Total (N = 99)): 1 ( 1.0%) | Domvanalimab-related AE: Asthenia ([1]; Total (N = 99)): 1 ( 1.0%) | Domvanalimab-related AE: Back pain ([1]; Total (N = 99)): 2 ( 2.0%) | Domvanalimab-related AE: Constipation ([1]; Total (N = 99)): 2 ( 2.0%) | Domvanalimab-related AE: Cough ([1]; Total (N = 99)): 1 ( 1.0%) | Domvanalimab-related AE: Decreased appetite ([1]; Total (N = 99)): 3 (3.0%) | Domvanalimab-related AE: Delirium ([1]; Total (N = 99)): 1 ( 1.0%) | Domvanalimab-related AE: Diarrhoea ([1]; Total (N = 99)): 5 (5.1%) | Domvanalimab-related AE: Dry eye ([1]; Total (N = 99)): 1 ( 1.0%) | Domvanalimab-related AE: Dry mouth ([1]; Total (N = 99)): 1 ( 1.0%) | Domvanalimab-related AE: Dyspnoea exertional ([1]; Total (N = 99)): 1 ( 1.0%) | Domvanalimab-related AE: Fatigue ([1]; Total (N = 99)): 6 (6.1%) | Domvanalimab-related AE: Flank pain ([1]; Total (N = 99)): 1 ( 1.0%) | Domvanalimab-related AE: Generalised oedema ([1]; Total (N = 99)): 1 ( 1.0%) | Domvanalimab-related AE: Headache ([1]; Total (N = 99)): 4 (4.0%) | Domvanalimab-related AE: Hot flush ([1]; Total (N = 99)): 1 ( 1.0%) | Domvanalimab-related AE: Hyperglycaemia ([1]; Total (N = 99)): 1 ( 1.0%) | Domvanalimab-related AE: Hyperkalaemia ([1]; Total (N = 99)): 1 ( 1.0%) | Domvanalimab-related AE: Hyperthyroidism ([1]; Total (N = 99)): 3 (3.0%) | Domvanalimab-related AE: Hypokalaemia ([1]; Total (N = 99)): 1 ( 1.0%) | Domvanalimab-related AE: Hypothyroidism ([1]; Total (N = 99)): 4 (4.0%) | Domvanalimab-related AE: Immune-mediated hepatitis ([1]; Total (N = 99)): 2 ( 2.0%) | Domvanalimab-related AE: Influenza like illness ([1]; Total (N = 99)): 1 ( 1.0%) | Domvanalimab-related AE: Infusion related reaction ([1]; Total (N = 99)): 2 ( 2.0%) | Domvanalimab-related AE: Infusion site pain ([1]; Total (N = 99)): 1 ( 1.0%) | Domvanalimab-related AE: Liver function test increased ([1]; Total (N = 99)): 1 ( 1.0%) | Domvanalimab-related AE: Lymphopenia ([1]; Total (N = 99)): 1 ( 1.0%) | Domvanalimab-related AE: Malaise ([1]; Total (N = 99)): 2 ( 2.0%) | Domvanalimab-related AE: Muscle spasms ([1]; Total (N = 99)): 1 ( 1.0%) | Domvanalimab-related AE: Musculoskeletal chest pain ([1]; Total (N = 99)): 1 ( 1.0%) | Domvanalimab-related AE: Myalgia ([1]; Total (N = 99)): 1 ( 1.0%) | Domvanalimab-related AE: Nail disorder ([1]; Total (N = 99)): 1 ( 1.0%) | Domvanalimab-related AE: Nasal mucosal disorder ([1]; Total (N = 99)): 1 ( 1.0%) | Domvanalimab-related AE: Nausea ([1]; Total (N = 99)): 6 (6.1%) | Domvanalimab-related AE: Oral pain ([1]; Total (N = 99)): 1 ( 1.0%) | Domvanalimab-related AE: Pain ([1]; Total (N = 99)): 2 ( 2.0%) | Domvanalimab-related AE: Pancreatitis ([1]; Total (N = 99)): 1 ( 1.0%) | Domvanalimab-related AE: Paraesthesia ([1]; Total (N = 99)): 1 ( 1.0%) | Domvanalimab-related AE: Peripheral sensory neuropathy ([1]; Total (N = 99)): 1 ( 1.0%) | Domvanalimab-related AE: Pneumonitis ([1]; Total (N = 99)): 2 ( 2.0%) | Domvanalimab-related AE: Pruritus ([1]; Total (N = 99)): 9 (9.1%) | Domvanalimab-related AE: Pruritus generalised ([1]; Total (N = 99)): 1 ( 1.0%) | Domvanalimab-related AE: Pulmonary pain ([1]; Total (N = 99)): 1 ( 1.0%) | Domvanalimab-related AE: Pyrexia ([1]; Total (N = 99)): 5 (5.1%) | Domvanalimab-related AE: Rash ([1]; Total (N = 99)): 4 (4.0%) | Domvanalimab-related AE: Rash maculo-papular ([1]; Total (N = 99)): 6 (6.1%) | Domvanalimab-related AE: Rash pruritic ([1]; Total (N = 99)): 1 ( 1.0%) | Domvanalimab-related AE: Rhinorrhoea ([1]; Total (N = 99)): 1 ( 1.0%) | Domvanalimab-related AE: Transaminases increased ([1]; Total (N = 99)): 1 ( 1.0%) | Domvanalimab-related AE: Tumour flare ([1]; Total (N = 99)): 3 (3.0%) | Domvanalimab-related AE: Tumour pain ([1]; Total (N = 99)): 1 ( 1.0%) | Domvanalimab-related AE: Vomiting ([1]; Total (N = 99)): 1 ( 1.0%) | tolerability in cancer patients ([1]; clinical data to date): well tolerated | complement-dependent cytotoxicity [2]: No cytotoxicity
